Test: soluble on expression in E. coli; label from the status in PepcDB or PDB records

| Sequence | soluble on expression in E. coli |
| --- | --- |
| MVIEMEPDTHIISALVEHKPGVLQRVAGLFTRRGFNIENITVGESETPGIARMTIIARGDDRVLEQITKQLNKLIDVIKVRDLEPAATVKRELCMVKVHAPSESERSEIIQYTNIFRGRIVDVSPDALTVEVTGDSEKIDAFLELLRNFGIKELARTGPTAMSRGSRTM | not soluble |
| MGSDKIHHHHHHMMYKHVALLVRQDDMSHEEFVDYWQANHTPIAKDIEGVVRYQQVLPTEPAHAEFDGLAELYFETLEDLHEALGSPGSRDYDPTKEIAAKAREDVNNFLAVEERPRIIGEEIVQKDEVDGDTDGLYKHSAFLVRQDDMTHEEFVDYWQTNHTPIAREIEGVVKYNTVIPTDPENAEFDGVAELYFDDIEKLYDALGSEGLRDYAPDRGKAKAAREDVNNFLAIDERPRFIGQEQLVKDEG | not soluble |
| IGKVKLSARGTFTYARNKIVEYDELPQRYPWMAQTGMRINENYLYIAERLYTKEDFIVSKNGSGIETYTLRSELPQSTLGGLLGPGDIKYKDINGDGIIDSYDKVRGVGHPKVPEIVYGFGLNIEYKGFYASAFFQGAGNCSVLLGGNTPEGWFPFSWGVDQSNYRTFALDRWTEKNPSQNVLMPRLHKDNTNAANNSVASTWWLRNGGFLRLKNVELGYQLPKKLLSKINLQAARIYLMGYNIALWDDLKYFDPEAGNANGGNTYPKARTFTLGIDFTF | not soluble |
| MSPDSCPLVKNILLLDSEGKRVAVKYYSDDWPTNAAKLSFEKYVFSKTSKTNARTEAEITLLDSNIIVYKFAQDLHFFVTGGENENELILASVLQGFFDAVALLLRSNVEKMEALENLDLIFLCLDEMVDQGVVLETDPNVIAGKVAMQSTEASGSLSEQTLTQALATAREHLARSLLT | soluble |
| MPKATFYTHVAQVPIFTCRLIARAIRDGGRILVWSDSFGQLQELDKMLWQYEAESFIPHEIWETEEAMPSEPSVLLACGGNLPRIPEGMTVLNLSDGFWNTAPVLPARVLEIVGNSLEELADARERFTAYRRSGFAIEHHGMEGKA | not soluble |
| MSLNRYLAAPEIKANETLVIADRYAYFNIPSWKGAGVAVPVFSLKSEKSFGVGDFGDLKRMVDWAVSTNQKVVQILPINDTTMTHTWTDSYPYNSISIYAFHPMYADLKQMGNLKDKETAAAFNRKQKELNALSAIDYEAVNRVKWEYFHQIFKQEGEKVLASKAFRSFFEANKDWLQPYAAFSYLRDLYHTPNFREWPQYSEYNAQEIEELCRPDTADYAHIAIYFYIQFNLHLQLLEATTYAREHGVVLKGDIPIGISRNSVEAWTEPYYFNLNGQAGAPPDDFSINGQNWGFPTYNWDVMENDGYKWWMKRFQKMAEYFDAYRIDHILGFFRIWEIPMNAVHGLLGQFVPALPMSREEIESYGLSFREEFLRPYIHEYFLGQVFGPHTDYVKQTFIEPTETYEVYRMRPEFDTQRKVEAFFAGKNDEDSIWVRDGLYALISDVLFVPDRKDPNLYHPRIGVQHDFIYRALNDWEKTAFNRLYDQYYYHRHNDFWQQQAMKKLPQLTQSTRMLVCGEDLGMIPDCVAWVMNDLRILSLEIQRMPKNPAEEFGRLNEYPYRSVCTFSTHDMSTLRGWWEEDYQQTQRYYNQMLGHYGTAPAIATPELCEEIVRNHLYSNSILCILSLQDWLSMDGKWRNPNVQEERINIPANPRHYWRYRMHLTLEQLMKAESLNEKIRELVKQTGRNEGHHHHHH | soluble |
| MSLKSTDIKIVEAKFSTEEVPFRTPLKFGGRVMDSSVLLNVEVIVETRNGKQGIGIGSMPAGNIWAWPSAVVSPEDSLKAMIEFLKEAVEIANICPEVAHPIDLMYHISAEYHFMAKKLSKRLGLAEEIPELAQLVASSPLDAAIHDGFGRANHINSYNGLSAEYMSHDLTEYLDDQFKGEYLDQYTLRDPKPTLPLYHLVGALDPITEADISERVDDGLPETLGEWIKADGLTHLKIKLSGDNMDWDISRVIAVENEAVKAQGERGQDKWVYSLDFNEKCENVDYVLDFLNKIREQTPAAFDRVQYIEQPTNRDLKANPENKMHEAAKIKPVVIDESLVDYESLLLSRELGYSGVALKACKGQTESLFLGAAAQKFDMFLCVQDLTCCGYSFLHSASLAARIPSIAAIEGNGRQYCPGPNKKWKRSYPGMFNITDGTVKTSELNGDGLGFEGHHHHHH | soluble |
| SGAAGPSSASVKEFQNLVDQHITPFVALSKKLAPEVGNQVEQLVKAIDAEKALINTASQSKKPSQETLLELIKPLNNFAAEVGKIRDSNRSSKFFNNLSAISESIGFLSWVVVEPTPGPHVAEMRGSAEFYTNRILKEFKGVNQDQVDWVSNYVNFLKDLEKYIKQYHTTGLTWNPKGGDAKSATP | soluble |
| PFSWRHYIVLSRQDLEEYGEEIIAHEYAHIMHKHFRDLLLAEICLLFQWFNPAMWLFRKELKTVHEFEADESVLKAGIDAKKYQLLLI | not soluble |
| AEDIFGELFNEANNFYIRANSLQDRIDRLAVKVTQLDSTVEEVSLQDINMKKAFKSSTVQDQQVVSKNSIPNPVADIYNQSDKPPPLNILTPYRDDKKDGLKFYTDPSYFFDLWKEKMLQDTEDKRKEKRRQKEQKRIDGTTREVKKVRKARNRRQEWNMMAYDKELRPDNRLSQSVYHGASSEGSLSPDTRSHASDVTDYSYPATPNHSLHPQPVTPSYAAGDVPPHGPASQAAEHEYRPPSASARHMALNRPQQPPPPPPPQAPEGSQASAPMAPADYGMLPAQIIEYYNPSGPPPPPPPPVIPSAQTAFVSPLQMPMQPPFPASASSTHAAPPHPPSTGLLVTAPPPPGPPPPPPGPPGPGSSLSSSPMHGPPVAEAKRQEPAQPPISDARSDLLAAIRMGIQLKKVQEQREQEAKREPVGNDVATILSRRIAVEYSDSDDDSEFDENDWSD | soluble |
| MAHHHHHHMKTKVELKFLGGLESYLANKSKNYVSLEIESEEFNFENLIAYIRNHIIVDRKDVFSDFVMSDGNVKSCNVMIDDKEYSNYNLSDKGKIKPGIIVLINEYDWEILDTYTYKIKNNDKICFLSTLHGG | soluble |
| MGSDKIHHHHHHKSVHPYWSQVEQGVKAAGKALGVDTKFFVPQKEDINAQLQMLESFIAEGVNGIAIAPSDPTAVIPTIKKALEMGIPVVTLDTDSPDSGRYVYIGTDNYQAGYTAGLIMKELLGGKGKVVIGTGSLTAMNSLQRIQGFKDAIKDSEIEIVDILNDEEDGARAVSLAEAALNAHPDLDAFFGVYAYNGPAQALVVKNAGKVGKVKIVCFDTTPDILQYVKEGVIQATMGQRPYMMGYLSVTVLYLMNKIGVQNTLMMLPKVKVDGKVDYVIDTGVDVVTPENLDEYLKKMEELGIPIKF | not soluble |
| MTSAEMTSPNNNSEHQAIAKMRTMIEGFDDISHGGLPIGRSTLVSGTSGTGKTLFSIQFLYNGIIEFDEPGVFVTFEETPQDIIKNARSFGWDLAKLVDEGKLFILDASPDPEGQEVVGGFDLSALIERINYAIQKYRARRVSIDSVTSVFQQYDASSVVRRELFRLVARLKQIGATTVMTTERIEEYGPIARYGVEEFVSDNVVILRNVLEGERRRRTLEILKLRGTSHMKGEYPFTITDHGINIFPLGAMRLTQRSSNVRVSSGVVRLDEMCGGGFFKDSIILATGATGTGKTLLVSRFVENACANKERAILFAYEESRAQLLRNAYSWGMDFEEMERQNLLKIVCAYPESAGLEDHLQIIKSEINDFKPARIAIDSLSALARGVSNNAFRQFVIGVTGYAKQEEITGLFTNTSDQFMGAHSITDSHIATITDTIILLQYVEIRGEMSRAINVFKMRGSWHDKAIREFMISDKGPDIKDSFRNFERIISGSPTRITVDEKSELSRIVRGVQEKGPES | soluble |
| MGSDKIHHHHHHMISDSISKRRSIRKYKNQSISHETIEKIIEAGINAPSSKNRQPWRFVVITEKEKESMLKAMSKGIQNEINDNGLLPGSRQHIAGANYTVEIMKQAPVTIFILNILGKSPLEKLSPEERFYEMANMQSIGAAIQNMSLTAVELGLGSLWICDVYFAYRELCEWLNTDSQLVAAISLGYPDEEPSRRPRLQLSDVTEWR | not soluble |

Source: the DeepSol protein solubility set
